{"source": "paper PMC13041742", "about": "“Nonlinear stiffness of NompC gating spring and its implication in mechanotransduction” (Science Advances, 2026)", "target": "the molecule itself", "assay": "negative-stain EM with 2D class averaging; purified NompC-Δ12; raw micrographs and 2D class averages", "data": [{"protein": "NompC-Δ12 (complex, Drosophila, UniProt E0A9E1 1-1732, looked up, NompC (no mechanoreceptor potential C), Drosophila, NP_001245891.1, lacking the N-terminal 12 ankyrin repeats (amino acids 126 to 533); Full-length NompC with an internal deletion of residues 126-533; also called truncated NompC-Δ12; NompC complex with the N-terminal 12 ARs removed; not shown: SpyTag, N-terminal, kept; enhanced green fluorescent protein (after a 3C cleavage site), C-terminal, …) MSQPRGGRGGGRGGGVGRKTPSSLTGPPDESATPSERATPASKADSDPKDDSSSNGDKKDMDLFPAPKPPSAGASIRDTANKVLGLAMKSEWTPIEAELKKLEKYVANVGEDGNHIPLAGVHDMNTGETPLHMACRACHPDIVRHLIETVKEKHGPDKATTYINSVNEDGATALHYTCQITKEEVKIPESDKQIVRMLLENGADVTLQTKTALETAFHYCAVAGNNDVLMEMISHMNPTDIQKAMNRQSSVGWTPLLIACHRGHMELVNNLLANHARVDVFDTEGRSALHLAAERGYLHVCDALLTNKAFINSKSRVGRTALHLAAMNGFTHLVKFLIKDHNAVIDILTLRKQTPLHLAAASGQMEVCQLLLELGANIDATDDLGQKPIHVAAQNNYSEVAKLFLQQHPSLVNATSKDGNTCAHIAAMQGSVKVIEELMKFDRSGVISARNKLTDATPLQLAAEGGHADVVKALVRAGASCTEENKAGFTAVHLAAQNGHGQVLDVLKSTNSLRINSKKLGLTPLHVAAYYGQADTVRELLTSVPATVKSETPTGQSLFGDLGTESGMTPLHLAAFSGNENVVRLLLNSAGVQVDAATIENGYNPLHLACFGGHMSVVGLLLSRSAELLQSQDRNGRTGLHIAAMHGHIQMVEILLGQGAEINATDRNGWTPLHCAAKAGHLEVVKLLCEAGASPKSETNYGCAAIWFAASEGHNEVLRYLMNKEHDTYGLMEDKRFVYNLMVVSKNHNNKPIQEFVLVSPAPVDTAAKLSNIYIVLSTKEKERAKDLVAAGKQCEAMATELLALAAGSDSAGKILQATDKRNVEFLDVLIENEQKEVIAHTVVQRYLQELWHGSLTWASWKILLLLVAFIVCPPVWIGFTFPMGHKFNKVPIIKFMSYLTSHIYLMIHLSIVGITPIYPVLRLSLVPYWYEVGLLIWLSGLLLFELTNPSDKSGLGSIKVLVLLLGMAGVGVHVSAFLFVSKEYWPTLVYCRNQCFALAFLLACVQILDFLSFHHLFGPWAIIIGDLLKDLARFLAVLAIFVFGFSMHIVALNQSFANFSPEDLRSFEKKNRNRGYFSDVRMHPINSFELLFFAVFGQTTTEQTQVDKIKNVATPTQPYWVEYLFKIVFGIYMLVSVVVLINLLIAMMSDTYQRIQAQSDIEWKFGLSKLIRNMHRTTTAPSPLNLVTTWFMWIVEKVKARMKKKKRPSLVQMMGIRQASPRTKAGAKWLSKIKKDSVALSQVHLSPLGSQASFSQANQNRIENVADWEAIAKKYRALVGDEEGGSLKDSDAESGSQEGSGGQQPPAQVGRRAIKATLADTTK", "values": [{"measurement": "stoichiometry N", "value": 4}]}]}
